The values below come from article PMC7823558 (Viruses, 2020).

Read-outs that look alike come from different tables or passages of the source.

The test system of one test is T1, gp11.
T1 construct: E. coli BL21(DE3)
Nature of the test: coupled pyruvate kinase / lactate dehydrogenase assay, NADH absorbance at […] nm. The format is biochemical, Lactococcus phage asccphi28. To be noted: 0.1 µM gp11, 50 mM Tris pH 7.5, 72 mM KCl, 7.2 mM MgSO4, 2 mM PEP, 0.3 mM NADH.

Test [1] deals with gene product 11 (gp11), DNA packaging ATPase from Lactococcus lactis phage asccφ28 (Lactococcus lactis phage asccφ28). In words: AUC.
Test [2] has the same target. Nature of the test: SEC. For orientation: SEC sorts molecules by how far they enter the pores of the column.
The target is the same in test [3]. Nature of the test: AUC; sedimentation velocity, data not shown.

Regarding `Nc1ncnc2c1ncn2[C@@H]1O[C@H](COP(=O)(O)OP(=O)(O)OP(=O)(O)O)[C@@H](O)[C@H]1O` [ATP], the Km with gp11 (read-out: ATP) came out at 28 µM.
Consider `Nc1nc2c(ncn2[C@@H]2O[C@H](COP(=O)(O)OP(=O)(O)OP(=O)(O)O)[C@@H](O)[C@H]2O)c(=O)[nH]1` [GTP], for which, in the test on gp11 (read-out: GTP), the Km is 344 µM.
For the compound “gene product 11 (gp11), DNA packaging ATPase from Lactococcus lactis phage asccφ28 (enzyme)”, the stoichiometry N – broadly, a count of units in the complex or per binding partner – in test [1] is 10 monomers; in test [2] it was 4 to 15 copies; in test [3], 10 monomers.
